Changes are numbered by the printed parent chain. Where two headings read alike, the source gives them in different places.
Experiments:
[1] = molecular target: T1, rhNR10 (recombinant human NR10) (human, UniProt Q8NI17 20-519, limits assumed); assay: SPR, Biacore T100; antibody captured on Protein A, rhNR10 as analyte
T1 construct: also called IL-31 receptor; IL31RA
T1 sequence: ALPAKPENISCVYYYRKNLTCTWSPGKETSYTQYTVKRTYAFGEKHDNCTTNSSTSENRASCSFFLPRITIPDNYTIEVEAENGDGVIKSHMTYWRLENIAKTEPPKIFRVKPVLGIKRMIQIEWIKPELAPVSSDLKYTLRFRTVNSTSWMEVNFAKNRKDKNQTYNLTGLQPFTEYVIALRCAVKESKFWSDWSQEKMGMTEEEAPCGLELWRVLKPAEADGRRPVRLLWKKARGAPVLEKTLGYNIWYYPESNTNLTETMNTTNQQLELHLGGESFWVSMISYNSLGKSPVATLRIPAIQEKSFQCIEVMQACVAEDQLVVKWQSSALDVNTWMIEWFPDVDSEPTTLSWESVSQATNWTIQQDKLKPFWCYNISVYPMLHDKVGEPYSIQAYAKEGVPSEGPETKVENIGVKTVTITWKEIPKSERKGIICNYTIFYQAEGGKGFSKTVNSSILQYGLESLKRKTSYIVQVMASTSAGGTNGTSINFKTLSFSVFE
Description: (§1) Kinetic analysis of the antigen-antibody reaction was carried out using Biacore T100 (GE Healthcare Biosciences). The antigen-antibody interaction was measured by immobilizing rec-Protein A (hereinafter Protein A) (ZYMED) onto a sensor chip, capturing an antibody on the immobilized Protein A, and then reacting the antigen as an analyte. Various concentrations of rhNR10 were used as the antigen. The kinetic parameters, association rate constant kₐ (1/Ms) and dissociation rate constant kd (1/s), were calculated from the sensorgrams obtained by the measurement. Then, KD (M) was determined based on the rate constants. Each parameter was determined using Biacore T100 Evaluation Software version 1.1 (GE Healthcare Biosciences).
(§2) The running buffer used was HBS-EP+. Each antibody was prepared at 0.25 μg/ml, or prepared so that about 100 RU would bind to Protein A. rhNR10 used as an analyte was prepared at 0, 38.5, 77.0, and 154 nM, or at 0, 19.25, and 77.01 nM using HBS-EP+. In the measurement, first, the antibody solution was captured on Protein A, and an analyte solution was reacted at a flow rate of 20 μL/min for three minutes. Then, the solution was switched to HBS-EP+, and the dissociation phase was measured for five minutes. After measurement of the dissociation phase, the sensor chip was regenerated by washing with 10 mM glycine-HCl (pH 1.5). The obtained sensorgrams were kinetically analyzed using the Biacore-specific data analysis software, Biacore T100 Evaluation Software Version 1.1.

[2] = molecular target: T2, cytoplasmic domain-lacking human NR10 on CHO cells (hNR10-expressing CHO cells) (human, UniProt Q8NI17 20-553); assay: FMAT competition on hNR10-expressing CHO cells: antibody titrated against FMAT Blue-labeled hIL-31; FL1 = cell-bound labeled hIL-31; mean±S.D. (n=3)
T2 construct: also called NR10-expressing cells
T2 sequence: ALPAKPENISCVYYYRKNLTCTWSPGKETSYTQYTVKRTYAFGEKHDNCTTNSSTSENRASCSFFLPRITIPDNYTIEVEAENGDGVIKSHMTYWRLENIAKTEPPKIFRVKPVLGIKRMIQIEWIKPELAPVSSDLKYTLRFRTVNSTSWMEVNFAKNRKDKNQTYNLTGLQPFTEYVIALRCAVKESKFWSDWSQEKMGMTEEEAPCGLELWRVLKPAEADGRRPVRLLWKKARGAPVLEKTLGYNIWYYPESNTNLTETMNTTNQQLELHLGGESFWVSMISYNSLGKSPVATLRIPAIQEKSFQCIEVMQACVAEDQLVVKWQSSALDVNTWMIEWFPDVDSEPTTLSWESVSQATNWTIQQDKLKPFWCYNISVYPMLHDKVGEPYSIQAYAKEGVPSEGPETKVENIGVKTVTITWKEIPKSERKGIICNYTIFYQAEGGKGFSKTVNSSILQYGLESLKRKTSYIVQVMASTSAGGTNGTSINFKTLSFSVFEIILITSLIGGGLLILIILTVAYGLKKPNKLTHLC
Description: Antibodies were assessed for the activity of inhibiting the IL-31/NR10 binding by using hNR10-expressing CHO cells as described below. The chimeric NS22 antibody and NS22_H0L0 (H chain, H0-SKSC/SEQ ID NO: 54; L chain, L0/SEQ ID NO: 56) were diluted at an appropriate concentration using Assay buffer (10 mM HEPES, 140 mM NaCl, 2.5 mM CaCl₂, 3 mM MgCl₂, 2% FBS, 0.01% NaN₃, pH7.4), and further eight serial dilutions were prepared at a common dilution ration of 2. The dilutions were added at 40 μl/well to plates (96-Well FMAT Plates, Applied Biosystems). Then, FMAT Blue-labeled hIL-31 was diluted 400 times with Assay buffer, and added at 20 μl/well. Finally, a cell suspension adjusted to 2.5×10⁵ cells/ml using Assay buffer was added at 40 μl/well (final 1×10⁴ cells/well). Two hours after addition of cells, the fluorescence (FL1) was measured using the 8200 Cellular Detection System (Applied Biosystems).
Each variant was tested for the activity of inhibiting the hIL-31/hNR10 binding by using FMAT. The test was carried out according to the method as described in Example 4.

[3] = molecular target: T1, rhNR10 (recombinant human NR10); assay: SPR, Biacore T100; antibody captured on Protein A, rhNR10 as analyte; remark: listed apart in the source
Description: as §1, §2

[4] = molecular target: T1, rhNR10 (recombinant human NR10); assay: as above; remark: listed apart in the source
Description: as §1, §2

B1: H0La326 (H0-SKSC / La326) (antibody, name in Kabat numbering, V domains shown)
VH: QVQLVQSGAEVKKPGASVKVSCKASGYTFTGYIMNWVRQAPGQGLEWMGLINPYNGGTSYNQKFKGRVTITADESTSTAYMELSSLRSEDTAVYYCARDGYDDGPYTMDYWGQGTLVTVSS
VL: DIQMTQSPSSLSASVGDRVTITCRTSENIYSFLAWYQQKPGKAPKLLIYNAKTLAKGVPSRFSGSGSGTDFTLTISSLQPEDFATYYCQHHYESPLFFGGGTKVEIKR
Kd [1]: 3.7 nM | koff [1]: 0.00052 s⁻¹ | kon [1]: 140000 M⁻¹ s⁻¹

B2: Hp1 variant of H0L0 (antibody, V domains shown)
VH: B1 VH with K65Q
VL: DIQMTQSPSSLSASVGDRVTITCRTSENIYSFLAWYQQKPGKAPKLLIYNAKTLAKGVPSRFSGSGSGTDFTLTISSLQPEDFATYYCQHHYESPLTFGGGTKVEIK
binding result [2]: binds

B3: Lp6 variant of H0L0 (antibody, V domains shown)
VH: B1 VH
VL: B1 VL with K56D, F97T
notes: copies: 2 + 2
binding result [2]: binds

B4: Ha219L0 (Ha219-SKSC / L0) (antibody, V domains shown)
VH: B1 VH with Q62P
VL: B1 VL with F97T
Kd [1]: 3 nM | koff [1]: 0.00096 s⁻¹ | kon [1]: 320000 M⁻¹ s⁻¹

B5: Hp8 variant of H0L0 (antibody, V domains shown)
VH: B1 VH with N52D
VL: B2 VL
binding result [2]: binds

B6: H0L17 (H0-M58 / L17) (antibody, V domains shown)
VH: B1 VH
VL: B1 VL with R24Q, T25A, N28D, L33V, K52Q, L54E, K56Q, E93D, F97T
Kd [3]: 2.1 nM | koff [3]: 0.00081 s⁻¹ | kon [3]: 390000 M⁻¹ s⁻¹

B7: H19L12 (H19-M58 / L12) (antibody, V domains shown)
VH: B1 VH with I33A, S59D, Q62P, K63Q, K65Q, G66D
VL: B1 VL with R24Q, N28D, L33V, K52Q, L54E, K56Q, E93D, F97T
Kd [4]: 5.1 nM | koff [4]: 0.0012 s⁻¹ | kon [4]: 230000 M⁻¹ s⁻¹

B8: Hp6 variant of H0L0 (antibody, V domains shown)
VH: B1 VH with Q62D
VL: B2 VL
IC50 (read off the curve) [2]: ~0.1 mg/L

B9: Hp9 variant of H0L0 (antibody, V domains shown)
VH: B1 VH with K63Q
VL: B2 VL
IC50 (read off the curve) [2]: ~0.1 mg/L

B10: Lp4 variant of H0L0 (antibody, V domains shown)
VH: B1 VH
VL: B2 VL with K52Q
binding result [2]: binds

B11: Lp3 variant of H0L0 (antibody, V domains shown)
VH: B1 VH
VL: B2 VL with N50D
binding result [2]: binds

B12: Ha101L0 (Ha101-SKSC / L0) (antibody, V domains shown)
VH: B1 VH with I33V
VL: B1 VL with F97T
Kd [1]: 1.5 nM | koff [1]: 0.00031 s⁻¹ | kon [1]: 200000 M⁻¹ s⁻¹

B13: Lp1 variant of H0L0 (antibody, V domains shown)
VH: B1 VH
VL: B2 VL with R24Q
binding result [2]: binds

B14: Ha103L0 (Ha103-SKSC / L0) (antibody, V domains shown)
VH: B1 VH with M34I
VL: B1 VL with F97T
Kd [1]: 2.4 nM | koff [1]: 0.00053 s⁻¹ | kon [1]: 220000 M⁻¹ s⁻¹

B15: H0La328 (H0-SKSC / La328) (antibody, V domains shown)
VH: B1 VH
VL: B1 VL with S94D, F97T
Kd [1]: 2.9 nM | koff [1]: 0.00052 s⁻¹ | kon [1]: 180000 M⁻¹ s⁻¹

B16: Lp5 variant of H0L0 (antibody, V domains shown)
VH: B1 VH
VL: B1 VL with K56Q, F97T
notes: copies: 2 + 2
binding result [2]: binds

B17: Lp7 variant of H0L0 (antibody, V domains shown)
VH: B1 VH
VL: B2 VL with L54E
binding result [2]: binds

B18: Ha111L0 (Ha111-SKSC / L0) (antibody, V domains shown)
VH: B1 VH with M34L
VL: B1 VL with F97T
Kd [1]: 2.1 nM | koff [1]: 0.00056 s⁻¹ | kon [1]: 260000 M⁻¹ s⁻¹

B19: Lp2 variant of H0L0 (antibody, V domains shown)
VH: B1 VH
VL: B2 VL with N28D
binding result [2]: binds

B20: Hp3Lp15 (Hp3-SKSC / Lp15) (antibody, V domains shown)
VH: B1 VH with K63Q, K65Q, G66D
VL: B1 VL with R24Q, N28D, K52Q, L54E, K56Q, F97T
notes: also called Hp3Lp15-SKSC
Kd [4]: 3.9 nM | koff [4]: 0.0016 s⁻¹ | kon [4]: 420000 M⁻¹ s⁻¹

B21: Ha204L0 (Ha204-SKSC / L0) (antibody, V domains shown)
VH: B1 VH with S59D
VL: B1 VL with F97T
Kd [1]: 1.3 nM | koff [1]: 0.00048 s⁻¹ | kon [1]: 370000 M⁻¹ s⁻¹

B22: Hp13 variant of H0L0 (antibody, V domains shown)
VH: B1 VH with K65Q, G66D
VL: B2 VL
binding result [2]: binds

B23: Hp5 variant of H0L0 (antibody, V domains shown)
VH: B1 VH with R38Q, A40S
VL: B2 VL
binding result [2]: binds

B24: Hp7 variant of H0L0 (antibody, V domains shown)
VH: B1 VH with L50E
VL: B2 VL
binding result [2]: binds

— patent US20110129459A1 (Chugai, published 2011)
